{"source": "the DeepSol protein solubility set", "data": [{"assay": "soluble on expression in E. coli; label from the status in PepcDB or PDB records", "values": [{"sequence": "MGSDKIHHHHHHMPHHQPCPPASSLSAGPRGGVIMLILKNVTAVQLHPAKVQEGVDIAIENDVIVAIGDALTQRYPDASFKEMHGRIVMPGIVCSHNHFYSGLSRGIMANIAPCPDFISTLKNLWWRLDRALDEESLYYSGLICSLEAIKSGCTSVIDHHASPAYIGGSLSTLRDAFLKVGLRAMTCFETTDRNNGIKELQEGVEENIRFARLIDEAKKATSEPYLVEAHIGAHAPFTVPDAGLEMLREAVKATGRGLHIHAAEDLYDVSYSHHWYGKDLLARLAQFDLIDSKTLVAHGLYLSKDDITLLNQRDAFLVHNARSNMNNHVGYNHHLSDIRNLALGTDGIGSDMFEEMKFAFFKHRDAGGPLWPDSFAKALTNGNELMSRNFGAKFGLLEAGYKADLTICDYNSPTPLLADNIAGHIAFGMGSGSVHSVMVNGVMVYEDRQFNFDCDSIYAQARKAAASMWRRMDALA", "soluble on expression in E. coli": "not soluble"}, {"sequence": "MGSDKIHHHHHHMPKVEIAPSEIKIPDNVLKAKLGFGGAEEIPEEFRKTVNRAYEELLDAAKPVVLWRDFEVDGSLSFDDMRLTGELATKHLSGSKIITVFLATLGKKVDEKIEEYFRKGEDLLAFFIDGIASEMVEYALRKVDAELRMKRSNLEGSFRISPGYGDLPLSLNKKIAEIFKEEVDVNVIEDSYVLVPRKTITAFVGWREKNEKQT", "soluble on expression in E. coli": "soluble"}, {"sequence": "MGSDKIHHHHHHMPLNMNRDVFITAAVTGSGGTQDKSPHVPRSPKEIAASAIEAARAGAAVVHCHVRDPETGAPSRRLELYRELTDRIRDSEVDVVLNLTAGMGGDIVFGSTEAPLPVNEAATDMIGATERMAHIAECLPEICTLDCGTMNFAEADYVMTNTPGMLRAMGQMMTDLGVKPEIEAFDTGHLWFAKQLVKEGILEPNALVQLCMGVPWGAPNDLNTFMAMVNNVPSDWTWSAFSLGRDQMPFAAASVLAGGNVRVGLEDNLFLDKGVLATNAQLVERAVSVIEGMGAKIVGPDAVREKLGLTKRAPVAA", "soluble on expression in E. coli": "not soluble"}, {"sequence": "MGSDKIHHHHHHMPPLNALRAFDAVARHGSFAGAAAELHVTHWAVGKQIRLLEDWFGLPLFDRRPRGVVLTDEGAVLLNDVSHAFEHLGTAVVRLRHNTLAHRISGVVRVNVPMSFAFCWLLPRLADFHSRYPDIDVRVSTTSRKLRYVADAFDIGVRSGPEQGAGVVSRPLMPDLRVPACNPALLRQHPIQSVADLRHHTLLHSATTRSAWSHWLREAGAADLRAARHVEFDHVNLQLGAAIEGLGVALASLPLIGRDLAEGRLVCPIASPVWRADDYTLVTNADRADDAAVSAFEQWMESMASQEAG", "soluble on expression in E. coli": "not soluble"}, {"sequence": "MGSDKIHHHHHHMPRDTLVSHRQSVDIGGKFSGKTVLTLDVYGTLIDWERGICDALGPILRGHGLSTSEDEMLERYATHESALEAGPYLTYREILEESLLRIAADLGFTPSEYELDIFSHSVGDWPAFADSRAALVALQKRFRLAVITNGDDEFFSLSNKHLKIQFDYVVTAQQARSYKPSLNNFHVALGRIDAPRSQILHVAQSLYHDHVPAQALGLQTVWINRRRGKPGFGAVPKAEAVPDAEFDDMRAFADAMLER", "soluble on expression in E. coli": "not soluble"}, {"sequence": "MGSDKIHHHHHHMPSERASSFDIMLWVLSGCSELLYGTQALPLTGKVDRIFGPAREPRDVRVLNYLELADRLDRSGIGTAVDHQRAALSETDIEVETTPWQEGHPAWALGGNIAFNDPMFREFDIAHCNMIGPGSVAVARYAAQADIPLVLHAHVTREDFRDSFRGSNLIAPVLGRYLRWFYSQADLVLCPSEYTKGILESYPVDAPIRPMTNGVDIDALAGHEDMREDYRRRYDLDGMVVFAVGNVFERKGLTTFCELAQETEHDFAWFGPYDAGPQASKTVSRWVNNPPENVTFTGWVEDIRGAFGAGDVYLFPTKAENQGIAVLEAMACGKAVVLSDIPVFREYYEDGHDCLICADEAEFREALERLAENPDLRERLGENARETAREHSLDRVSRRLVETYEELA", "soluble on expression in E. coli": "not soluble"}, {"sequence": "MGSDKIHHHHHHMPSKISQLVTGQKIEVQLSSSNVPARFYSEFIGAVNERWVIVNMPDARKYNDMRDLLQEKTPVIVRFVLENESGEICAFRSEISYVISHPTKMLFIMWPNQIEHRIIRKGRRFDAFLPASVSGQSVKGEENTFRGHVLDVSESGCRLKHEKPEGKIDELWENGSKIVLKIEQKNNGDLTLKAIVRQVKQVDDQLELGVQFMGNQKDEVNSLFSGSLVDIDELSRLESST", "soluble on expression in E. coli": "not soluble"}, {"sequence": "MGSDKIHHHHHHMPTGLDCTQTMLYRRFGKTNLHLSVFSLGTMRYLADSENVQQTIATALALGINHIETARGYGKSEEYFGQAIKVGLSVARSQLYVTTKIPPTSDADSMRRYIDESLERLNLDYLDCLGIHGLNTWEHLEWVQAKGGCMKAVEEAINDGRIRHVGFSTHGSLEVIQAAINTDFFEFVNLHYYYFFQRNAPAIKLASEKDMGIFIISPADKGGKLYTAPQTLQDLCQPLSPLELNYRFLLSDQRITTLSVGPATPEELVEPLQVADSCGELTSAEITIFQRLQNHQESVLETDKCSQCYACLPCPENINIPEVLRLRNLAVAYNMTDYGQYRYGMFENAGHWFPGMKANRCTECGDCLPRCPEKLDIPNLLEDAHNRLNGRAGRRLWG", "soluble on expression in E. coli": "not soluble"}, {"sequence": "MGSDKIHHHHHHMPTLKEKIIQESQRLGIDKIGFTHAEPFIELEDSLHEQRERGYNSGFEHQNVEERIYPEKTFEHPKSIISIALAYPTKAQEKMPRDEKRGQFARASWGIDYHHILQDRLQKLIAFIEEQAATEAEKEHWRFRPQVDTGEYVDTAVAQRAGLGFIGKNGLLITEEFGSFVYLGEVTTNIQFEPDEPVPNGCGDCTRCITGCPTGALLGDGRMNAQKCLSYQTQTKGMMPEDYRKKMRNVIYGCDICQLVCPYNKGKDFHFHEEMEPKIEEVYPKLAPLLTISNKEFKQQFGHLAGSWRGKKPLQRNALIALANLGGREAIPQIILCLNDQRPVIRGTAAWSLGQLAKREPEQSLEALNYLLSVETEEEVIEEAQKAIHLLTSKKGSRSTE", "soluble on expression in E. coli": "not soluble"}, {"sequence": "MGSDKIHHHHHHMPVTAIFSPDTPAMGIGWRHPHYAGLLQTGPALDFIEVHSENFFAPGGAARAVLRQGREHYPVSLHGTGLSLGSACGVDEWHLAQLAELVQEIDPVRVSDHASFARGHLPGTDAPVHAADLLPVPFTREALAVMCSNVQRVQERLKRPIAVENLSAYLDWRAADMRETEFLAALAQRTGCSLLVDVNNLYVNAQNAWLRGALNSAPGDADAALASCRDWIDQIAASPVAELHLAGHAHLGDIVIDDHGSRVCAEVWQLYRHALARLGPVPTLIEWDTDVPALSVLLDEVARARGIAQGRPATRQPSAEARP", "soluble on expression in E. coli": "not soluble"}, {"sequence": "MGSDKIHHHHHHMQFGNHPYYANELMLSLDEASGMVGEDARVAEFIRPLYGSRESISGTPRTCLWITDENLALAQEIPAVWARVEKVRKDRKTKTKDVQAKKLVETPWRFRDQYEAESSLLVVPIVSSENRPYLPVVLLSKEAIVHNKAFALYDAPLWNFALIVSKMHLVWVAAVCVRLEMRYSYSNTLGWNTFPVPTLTEQNKADLTRCAEDILLARESHYPATIADLYGPDNMPDDLLRAHERNDEVLERIYIGRRFRNDTERLEKLFDLYTKMTAGQGKPKKKAKK", "soluble on expression in E. coli": "not soluble"}, {"sequence": "MGSDKIHHHHHHMQIKALIYFDELVRTRSMRAAAERLNVQPTAFARQIDQLEHYFGTVLIERSSRGIQLTAAGELLAARAGKTLRELNHVHQLIDDLQGLKRGHVTIHANGATVANLLAPALADFSLVYPNIRFSVTISSAGQAMEALSSAKADMAVTLFSEPDPGIRVRARAQIVYDVIAASHHPAAHLAEMTVTELARFPLAVPDGSFGARRAFDAWFSKAGLELDPVFVTGSLEMQRELVLRGAALTLLPAQTVARERRSGELVVIPVAGGAGIRTPIDLCVAGDRQLSFAASKLVDAVERFMREQMGK", "soluble on expression in E. coli": "not soluble"}, {"sequence": "MGSDKIHHHHHHMQIVPLHSSHYPHIASVFHQAVRAAAGKGYTQAQCEAWSRGVRDRRYWRSRLGRSLVLVALNVDEVVGFIDCELEHPDKGYIGHLYVAPTHQGRGIGGKLLDALIRQAPALGIGSLTTDASLHSEPLFAAKGFSNVGRYFQQKSGQVLPGFAMTLPLPFYIDRMQGSDLASIARLFHEAVQGASEYYSEAERHAWSAALRDEATWQGKLAPSKVWVARKDSGIMGFINLLPKSIGEAEIDCLFTSPVLTRCGVATSLYWVLEQQARRDGVRRLSVEASYFARPFFQSRGFTELSRNEHPRHGQILVNFSMEKWLSRPEGG", "soluble on expression in E. coli": "not soluble"}, {"sequence": "MGSDKIHHHHHHMQLITSLDIRNSEYLSKDRLISYHHQLRLIFSLGNQVKNVLEIGIFNSLLTDILKNNGYNVTTADVDPNLKPEMILDLTTDFSLPKDKFDAIVLFQVLEHFPYEQSEEALKKLAEATKKFLVISIPYCTQYLSFQIKSSFSGRPRYLLLSVPKFWSTKPVCDEHYWEMGLKGYPKKRILNSVANAGLTVKQEFIDPSYPYHYFLVLEKTNNI", "soluble on expression in E. coli": "not soluble"}]}]}
